The record followed here is publication doi:10.1101/2021.02.10.430713.

This experiment has as its target Listeria monocytogenes c-di-AMP effector protein Lmo0553 (Listeria monocytogenes). Kind of experiment: crystal structure.

What is called stoichiometry N is the number of molecules, sites or subunits per partner or assembly. In the case of “Listeria monocytogenes c-di-AMP effector protein Lmo0553 (natural protein)”, the stoichiometry N came to 2.
